For assay [1], the target named is PlpD S118C with an N-terminal TwinStrepII tag (P. aeruginosa (strain PA14)) (UniProt Q9HYQ6). The assay is described as follows: cross-linking; in vivo disulfide-bond formation: cysteine mutants expressed in P. aeruginosa SEH88; intact cells in ice-cold PBS with 0.2 mM 4-DPS (or ethanol, mock) for 30 min; TCA precipitation, SDS-PAGE, immunoblot with the anti-PlpD C-terminal peptide antiserum.

Assay [2] concerns the target PlpD I117C with an N-terminal TwinStrepII tag (P. aeruginosa (strain PA14)) (UniProt Q9HYQ6). The assay is described as above.
Assay [3] concerns the target PlpD I532C with an N-terminal TwinStrepII tag (P. aeruginosa (strain PA14)) (UniProt Q9HYQ6). The assay is described as follows: cross-linking; in vivo disulfide-bond formation, time course: cells in ice-cold PBS with 0.2 mM 4-DPS for 0, 2, 5, 15, 30, 60, 90 and 120 min; immunoblot with the anti-PlpD C-terminal peptide antiserum.
The target is the same in assay [4]. The assay is described as follows: cross-linking; in vivo disulfide-bond formation: cysteine mutants expressed in P. aeruginosa SEH88; intact cells in ice-cold PBS with 0.2 mM 4-DPS (or ethanol, mock) for 30 min; TCA precipitation, SDS-PAGE, immunoblot with the anti-PlpD C-terminal peptide antiserum.
The target of assay [5] is PlpD V113C with an N-terminal TwinStrepII tag (P. aeruginosa (strain PA14)) (UniProt Q9HYQ6). The description is as above.
Assay [6] concerns the target PlpD M249C with an N-terminal TwinStrepII tag (P. aeruginosa (strain PA14)) (UniProt Q9HYQ6). The assay is described as follows: cross-linking; in vivo disulfide-bond formation, time course: cells in ice-cold PBS with 0.2 mM 4-DPS for 0, 2, 5, 15, 30, 60, 90 and 120 min; immunoblot with the anti-PlpD C-terminal peptide antiserum.
Assay [7] has the same target. The assay is described as follows: cross-linking; in vivo disulfide-bond formation: cysteine mutants expressed in P. aeruginosa SEH88; intact cells in ice-cold PBS with 0.2 mM 4-DPS (or ethanol, mock) for 30 min; TCA precipitation, SDS-PAGE, immunoblot with the anti-PlpD C-terminal peptide antiserum.

Regarding “PlpD S118C with an N-terminal TwinStrepII tag (from UniProt Q9HYQ6 1-728) (natural protein)”, the percent intermolecular disulfide bond formation in assay [1] came out at 84%.
Consider “PlpD I117C with an N-terminal TwinStrepII tag (from UniProt Q9HYQ6 1-728) (natural protein)”, for which, in assay [2], the percent intermolecular disulfide bond formation was 84%.
Substance “PlpD I532C with an N-terminal TwinStrepII tag (from UniProt Q9HYQ6 1-728) (natural protein)” displayed a percent intermolecular disulfide bonding, peak of the time course in assay [3] of 63%. In assay [4], this substance had a percent of PlpD in intermolecular disulfide-bonded form (30 min 4-DPS) of 65% and a stoichiometry N of 2.
“PlpD V113C with an N-terminal TwinStrepII tag (from UniProt Q9HYQ6 1-728) (natural protein)” registered a percent intermolecular disulfide bond formation in assay [5] of 84%.
As to “PlpD M249C with an N-terminal TwinStrepII tag (from UniProt Q9HYQ6 1-728) (natural protein)”, the percent intermolecular disulfide bonding, plateau of the time course (60-90 min) in assay [6] stood at 91.5%. In assay [7], this substance yielded a percent of PlpD in intermolecular disulfide-bonded form (30 min 4-DPS) of 65% and a stoichiometry N of 2.
